# Measurements as given in the supplement of paper PMC10724198.
# ± gives the standard deviation of the averaged measurements.
# Tested on: Saccharomyces cerevisiae
# Test: protein stability index of tFT-peptide fusion (C-terminal peptide) (PSI (0-1 scale)); higher = more stable (slower turnover)
# Details: genetic background: wild type; temperature: 30 C
# 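Further: PSI is a weighted mean of sequencing reads over stability bins, variants kept only with over 10 reads, mCherry proximal and sfGFP distal, peptide attached via GGGS linker.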
row,Sequence,protein stability index
1,PRGILLATPEGH,0.684 ± 0.021
2,PRHCYIPLPLLP,0.661 ± 0.021
3,PRHISIHPNATP,0.705 ± 0.045
4,PRLLPFPPPLDH,0.735 ± 0.083
5,PRLPGPAAIARR,0.6714 ± 0.004
6,PRLQLHSDPNCS,0.733 ± 0.087
7,PRLSPPSSPGPP,0.631 ± 0.03
8,PRLVHGFPRFHP,0.669 ± 0.033
9,PRPFPLSCSPPV,0.751 ± 0.083
10,PRPHRLPPRPFH,0.6917 ± 0.0064
11,PRPPAPPDPAPP,0.746 ± 0.072
12,PRPPLRPPPISP,0.68 ± 0.066
13,PRPPPLPPQTSS,0.73 ± 0.1
14,PRPPPSPPPILP,0.676 ± 0.0072
15,PRPPPSPTPPLT,0.69 ± 0.095
16,PRPPRPPRPPLP,0.66 ± 0.016
17,PRPPTPPTTILN,0.652 ± 0.032
18,PRPPYHAPSTFP,0.575 ± 0.074
19,PRPRQPPPPPPP,0.689 ± 0.0076
20,PRPRSPSPPLPP,0.705 ± 0.01
21,PRPRTPPPLLSF,0.687 ± 0.057
22,PRPSRILPLPAP,0.65 ± 0.0072
23,PRRLFFFFFLSG,0.656 ± 0.017
24,PRRPLPTISCPS,0.618 ± 0.005
25,PRRSPPCSTPPP,0.726 ± 0.077
26,PRRVGRLGAPMG,0.719 ± 0.11

row,Sequence,protein stability index
1,PRSAAQSQMRRK,0.711 ± 0.056
2,PRSCPPFLPSLP,0.727 ± 0.0099
3,PRSRPTCYSRPG,0.702 ± 0.04
4,PRSSSRAGRTGT,0.712 ± 0.031
5,PRSSTSFLPSFL,0.678 ± 0.064
6,PRSVPLCALLSL,0.654 ± 0.024
7,PRVPLPPPHPLH,0.728 ± 0.073
8,PRVTPRFSKHAL,0.724 ± 0.016
9,PSALPLFWSELF,0.661 ± 0.022
10,PSALSSSAPSSP,0.667 ± 0.043
11,PSCFNAPRHPPT,0.749 ± 0.076
12,PSCRPPLLHPDS,0.721 ± 0.0094
13,PSFLTGRPISPV,0.677 ± 0.018
14,PSGRPPGHDNLV,0.666 ± 0.045
15,PSHAAPVPAPQP,0.628 ± 0.079
16,PSHTPNHTGYPD,0.681 ± 0.02
17,PSILPPPSSCPP,0.767 ± 0.041
18,PSIMLSSLPPPP,0.696 ± 0.065
19,PSKGKYKKMGPR,0.661 ± 0.076
20,PSLLPLLPLPPP,0.685 ± 0.038
21,PSLLPSRPPRSI,0.648 ± 0.034
22,PSLPCPVLVFSL,0.462 ± 0.054
23,PSLPPLPPAPLL,0.726 ± 0.039
24,PSLSSPQLLLTL,0.685 ± 0.01
25,PSNDNTMIPILE,0.656 ± 0.04
26,PSPALLILPPYS,0.672 ± 0.016

row,Sequence,protein stability index
1,PSPFDTPPSSGQ,0.722 ± 0.026
2,PSPFPLPLSFAR,0.538 ± 0.047
3,PSPHTPPHTFLL,0.755 ± 0.0022
4,PSPLAPPLPPPS,0.701 ± 0.015
5,PSPLLSPPPPRP,0.706 ± 0.024
6,PSPLPSSGHPPP,0.6206 ± 0.0046
7,PSPLSLIPSSRP,0.663 ± 0.095
8,PSPMHPSAHFST,0.67613 ± 0.00039
9,PSPPAPFPLVPT,0.607 ± 0.032
10,PSPPAPLSLLLP,0.645 ± 0.074
11,PSPPAQSASLFF,0.663 ± 0.02
12,PSPPLPPPPSPY,0.72 ± 0.1
13,PSPPPAVLPPPP,0.693 ± 0.039
14,PSPPPLLAPSPL,0.683 ± 0.096
15,PSPPPLLTRPLP,0.713 ± 0.1
16,PSPPPPHPSALT,0.648 ± 0.012
17,PSPPPPPPHPAP,0.694 ± 0.035
18,PSPPPPPRTFPN,0.6756 ± 0.0064
19,PSPPPSPPPRHF,0.6924 ± 0.0046
20,PSPPPTPPPPTP,0.793 ± 0.096
21,PSPPTPLPSRLF,0.7829 ± 0.0037
22,PSPRPPPPPPSA,0.705 ± 0.009
23,PSPSGRGLAIAP,0.688 ± 0.013
24,PSPSPPPPLSPP,0.698 ± 0.045
25,PSPSTAPPRDQG,0.724 ± 0.016
26,PSPSTSLPPSPP,0.684 ± 0.042

row,Sequence,protein stability index
1,PSPSYAPARHQA,0.651 ± 0.063
2,PSPTIPSPPPPP,0.615 ± 0.011
3,PSPTLGPVSFPH,0.703 ± 0.014
4,PSPYFHLFGTQS,0.77 ± 0.027
5,PSQHVHTSPLYS,0.695 ± 0.022
6,PSQPYPSSQYIL,0.73 ± 0.047
7,PSQRHQRPHREP,0.657 ± 0.052
8,PSRASGPYPRLS,0.701 ± 0.019
9,PSRDPPAGPRAR,0.684 ± 0.048
10,PSRLSLLWVNPP,0.8 ± 0.081
11,PSRPRPRRRRQA,0.751 ± 0.073
12,PSRRAPQSRPSQ,0.733 ± 0.098
13,PSRRHGFRLILT,0.679 ± 0.019
14,PSRRPLPHPPPP,0.654 ± 0.045
15,PSRVPTPLPHFT,0.737 ± 0.049
16,PSSCLPAHLRPP,0.605 ± 0.013
17,PSSCSLLPLCLG,0.663 ± 0.065
18,PSSHHGNQTTRK,0.826 ± 0.14
19,PSSLPSTPPSPP,0.745 ± 0.019
20,PSSPLPLSVPPL,0.655 ± 0.11
21,PSSPPAPLAPHS,0.731 ± 0.067
22,PSSPPLPLPALP,0.723 ± 0.04
23,PSSRFLFFCSFF,0.677 ± 0.033
24,PSSSLAPPPGRL,0.572 ± 0.038
25,PSTDARRQRLRR,0.721 ± 0.049
26,PSTLLPSLRFPP,0.654 ± 0.056

row,Sequence,protein stability index
1,PSTPPGPPPASH,0.758 ± 0.011
2,PSTPSPSCAPPS,0.7087 ± 0.0017
3,PSTSCQRLLTLT,0.639 ± 0.018
4,PSTVSPFRPPIT,0.711 ± 0.039
5,PSVLPPPSPASY,0.668 ± 0.094
6,PTFVQGVVLGRG,0.702 ± 0.086
7,PTLPACFCPPAP,0.639 ± 0.097
8,PTLSSPHPPNNY,0.689 ± 0.021
9,PTMGRRPGRGGA,0.6987 ± 0.00073
10,PTPPPALPPPPL,0.6994 ± 0.0054
11,PTPPPQPTPHTP,0.705 ± 0.035
12,PTPPPRPPLSPP,0.692 ± 0.046
13,PTPPRPGPIITF,0.699 ± 0.031
14,PTPTAPEPIHPS,0.61 ± 0.0025
15,PTPTNLLPPRKY,0.6504 ± 0.0044
16,PTRPAMILPNRY,0.698 ± 0.049
17,PTRPPRPRAGPR,0.742 ± 0.0077
18,PTSFAPSPPLPR,0.741 ± 0.025
19,PTTLTTPTPPHR,0.7161 ± 0.0022
20,PTYTPAFPPVSS,0.699 ± 0.018
21,PVDGGAGPEVKG,0.641 ± 0.1
22,PVETVRCCLACP,0.64643 ± 0.00047
23,PVFPPTPLSPRP,0.571 ± 0.077
24,PVGDWPRGKGAD,0.684 ± 0.13
25,PVLYPPPPFPPY,0.747 ± 0.0095
26,PVPIPCPIPPPT,0.703 ± 0.0062

row,Sequence,protein stability index
1,PVPLLPLSFSLL,0.736 ± 0.064
2,PVPNPPPAPRSS,0.698 ± 0.062
3,PVPPPPCPPLPP,0.683 ± 0.024
4,PVPRNRQRWREP,0.663 ± 0.017
5,PVPRVPLYFPLV,0.675 ± 0.017
6,PVRLGAGGGCRP,0.693 ± 0.02
7,PVRSPPPLPSPP,0.653 ± 0.037
8,PVSSFQHSLPWL,0.708 ± 0.03
9,PVSSLHFPLPGF,0.677 ± 0.027
10,PVSSPLVFLLSI,0.625 ± 0.045
11,PVSTINLNIQST,0.836 ± 0.087
12,PVTMWAGGKYYV,0.718 ± 0.088
13,PVWLLASSLADL,0.722 ± 0.039
14,PYSLRSTASSFP,0.63 ± 0.12
15,PYSPPAHLLSLL,0.878 ± 0.061
16,QASFPRPSGRAS,0.7026 ± 0.0054
17,QAVPRAAHLHPL,0.66 ± 0.11
18,QCAPVFIAVCRL,0.681 ± 0.14
19,QCIQQNVSSSRA,0.646 ± 0.014
20,QCLFPVAYYLTP,0.657 ± 0.0097
21,QDHIGSTEGYKH,0.663 ± 0.074
22,QDSANLSPSFPF,0.724 ± 0.048
23,QEESRARKGTQT,0.627 ± 0.034
24,QEKKKVNKKENK,0.737 ± 0.045
25,QEKSLSHTQRYR,0.762 ± 0.072
26,QFERSVFLANAL,0.679 ± 0.023

row,Sequence,protein stability index
1,QFRRKGMITECK,0.7161 ± 0.0029
2,QFSPPLSLAPLP,0.783 ± 0.05
3,QFSRSFHSLPPT,0.683 ± 0.022
4,QFWVICTRGSEN,0.694 ± 0.029
5,QGGGGGGRSGWR,0.6854 ± 0.0061
6,QGRCHSRARMTP,0.731 ± 0.046
7,QGSWLRSVNLEY,0.617 ± 0.092
8,QGTCSQSIEAHF,0.706 ± 0.14
9,QHIKNARKKKGE,0.657 ± 0.0073
10,QIEQQKHKQPLI,0.6859 ± 0.0024
11,QIPEYGGQGVNV,0.6935 ± 0.0047
12,QIYKISKKKKQK,0.676 ± 0.055
13,QIYRMKNRYNKS,0.7 ± 0.038
14,QKATRHRTRPRR,0.688 ± 0.12
15,QKEGGRENETRT,0.6906 ± 0.0053
16,QKHGARISSQKK,0.703 ± 0.012
17,QKKIKKPKSKKH,0.736 ± 0.031
18,QKKKKTTVKKRQ,0.671 ± 0.021
19,QKKPEMLNKKSY,0.639 ± 0.015
20,QKKQKIKYRSKN,0.714 ± 0.053
21,QKNKKKKQKKEK,0.717 ± 0.05
22,QKPVQGICQEAN,0.628 ± 0.035
23,QKTSPWRQRGRL,0.778 ± 0.047
24,QLDPLRPASEFA,0.602 ± 0.043
25,QLILVGYCMLSV,0.5612 ± 0.0017
26,QLLCMSEPFVRE,0.699 ± 0.057

row,Sequence,protein stability index
1,QNEKSKQCIKQT,0.6759 ± 0.0019
2,QNKTKDQKQRRQ,0.697 ± 0.028
3,QNNTRQQRKTPR,0.683 ± 0.022
4,QNSDDFLITDTY,0.643 ± 0.1
5,QPGGTHDLGGTG,0.61 ± 0.012
6,QPGPKTTYLEEA,0.686 ± 0.014
7,QPPLPTRLNHRQ,0.651 ± 0.045
8,QPQRSRLRQQNT,0.734 ± 0.081
9,QPRVSTSGHSAR,0.722 ± 0.016
10,QPYHSSPSPRTI,0.717 ± 0.073
11,QQCVTGKSFYGI,0.856 ± 0.14
12,QQLPPARLPRRP,0.745 ± 0.012
13,QRFVKIRGLEKI,0.693 ± 0.026
14,QRGCEAKRGGEG,0.628 ± 0.014
15,QRSQASIPGQEV,0.579 ± 0.091
16,QSAPPPLPPRRR,0.69 ± 0.03
17,QSARMRRKSNLP,0.674 ± 0.028
18,QSLITVETRIGS,0.651 ± 0.045
19,QSPATIPFASHR,0.731 ± 0.014
20,QSPRRQLEGKLE,0.619 ± 0.046
